# Data taken from patent US20070099248A1.
# Molecular target: biotinylated AP-neuroligin-1 on rat hippocampal neurons (mouse neuroligin-1 with acceptor peptide at the N-terminus, biotinylated with biotin ligase) (mouse) (UniProt Q99K10)
# Assay: cell-based or functional assay
# Chain of biotinylated AP-neuroligin-1 on rat hippocampal neurons (mouse neuroligin-1 with acceptor peptide at the N-terminus, biotinylated with biotin ligase) (mouse) (Q99K10 46-843, form in doubt): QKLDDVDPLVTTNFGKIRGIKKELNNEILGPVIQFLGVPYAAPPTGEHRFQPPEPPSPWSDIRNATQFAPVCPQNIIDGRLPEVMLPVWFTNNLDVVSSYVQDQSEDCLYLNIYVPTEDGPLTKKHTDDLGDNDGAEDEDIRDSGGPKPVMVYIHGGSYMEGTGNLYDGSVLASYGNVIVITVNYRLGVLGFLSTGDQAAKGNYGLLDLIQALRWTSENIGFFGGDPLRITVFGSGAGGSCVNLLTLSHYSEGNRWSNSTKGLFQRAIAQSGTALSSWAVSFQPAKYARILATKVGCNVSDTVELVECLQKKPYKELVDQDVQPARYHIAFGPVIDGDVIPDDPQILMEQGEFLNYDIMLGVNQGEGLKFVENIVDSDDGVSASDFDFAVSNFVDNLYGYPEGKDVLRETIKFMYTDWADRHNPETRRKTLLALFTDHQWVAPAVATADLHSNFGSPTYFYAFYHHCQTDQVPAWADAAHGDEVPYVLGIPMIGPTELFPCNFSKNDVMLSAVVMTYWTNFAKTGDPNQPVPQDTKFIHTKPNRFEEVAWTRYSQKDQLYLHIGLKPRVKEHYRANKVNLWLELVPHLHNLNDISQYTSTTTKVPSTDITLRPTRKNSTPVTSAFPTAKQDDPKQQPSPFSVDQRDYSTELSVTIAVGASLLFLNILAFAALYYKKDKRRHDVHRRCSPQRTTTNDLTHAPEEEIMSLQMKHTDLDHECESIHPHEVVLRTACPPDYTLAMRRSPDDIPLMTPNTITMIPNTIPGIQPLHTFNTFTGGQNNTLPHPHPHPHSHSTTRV
row,clusters/µm of dendrite after two hour incubation [clusters/µm],Substance
1,0.266,Alexa Fluor 568-conjugated wild-type streptavidin (Molecular Probes) (from UniProt P22629 37-163)
2,0.087,"monovalent streptavidin A1D3 (one Alive subunit with His6 tag, three Dead subunits), Alexa Fluor 568-conjugated (designed binder)"
